Laboratory results as given in patent US10925971B2, “Methods of treating PRLR positive breast cancer” (Regeneron Pharmaceuticals, Inc., priority 2016, dated 2021).

B1: H1H6953N-SMCC-DM1 (conjugate)
VH: EVQLLESGGGLVQPGGTLRLSCAASGFTFSAYAMSWVRQAPGKGLEWVSSINVRAGDTYYADSVKGRFTISRDNSKNTLFLLMNSLRAEDTAAYYCAKARYSSNWGFDFWGQGTLVTVSS
VL: DIVMTQSPDSLTVSLGARTTINCQSSQTILHSSNNHNYLAWYQQKPGLPPKLLIYWSSTRESGVPDRFSGSGSGTDFTLTISSLQAEDVAIYYCQQYSNTPYTFGQGTKLEIN
B2: H1H6953N-mc-VC-PAB-MMAE (conjugate)
VH: B1 VH
VL: B1 VL
B3: H1H6953N-mc-VC-PAB-MMD (conjugate)
VH: B1 VH
VL: B1 VL
B4: H1H6953N-mc-VC-PAB-MeNHC3-May (conjugate)
VH: B1 VH
VL: B1 VL
B5: H1H6765P-SMCC-DM1 (conjugate)
VH: EVQLVESGGGVVRPGGSLRLSCVGSGFSFDDHGMNWVRQGPGKGLEWVSGFNWNGGSTNYAESVKGRFTISRDNARNSLFLQMNSLRAEDTALYYCVRGRSGWFNDAFDVWGPGTMVTVSS
VL: EIVLTQSPGTLSLSPGERATLSCRASQTINSNYLAWYRQKPGQTPRLLIYGTSSRATGIPDRFSGSGSGTDFSLTISRLEPEDFAVFYCQQYAGLPTFGPGTKVDIK
B6: H1H6765P-mc-VC-PAB-MMAE (conjugate)
VH: B5 VH
VL: B5 VL
B7: H1H6800P-DM1 (conjugate)
VH: EVQLVESGGGLVQPGRSLRLSCAASGFTFDGYAMHWVRQGPGKGLEWVSGISWYSDTLGYADSVKGRFTISRDNAKNSLYLQMNSLRTEDTAFYYCAKISSSGWAFDYWGQGTLVTVSS
VL: EIVLTQSPGTLSLSPGERATLSCRASHSVSSAYLAWYQQKPGQTPRLLIYGTSSRATGIPDRFSGSGSGTDFTLTISRLEPEDFAVYYCQQYGSSPLFTFGPGTKVDIK
B8: H1H6782P-mc-VC-PAB-MMD (conjugate)
VH: EVQLVESGGGLVQPGRSLRLSCAASGFTFDDYAMHWVRQAPGKGLEWVSGIIWNSGHIGYGDSVKGRFTISRDNAKKSLYLQMNSLRAEDTALYYCARDSGRYQSYFDYWGQGTLVTVSS
VL: DIQMTQSPSTLSASVGDRVTITCRASHIISSWLAWYQQKPGKAPKVLIFKASSLESGVPSRFSGSGSGTEFTLTISSLQPDDFATYYCQQYNTYSRTFGQGTKVEIK
B9: H1H6782P-mc-VC-PAB-MeNHC3-May (conjugate)
VH: B8 VH
VL: B8 VL
B10: H1H6975P-mc-VC-PAB-MMD (conjugate)
VH: EVHLVESGGGLVQPGGSLRLSCAASGFTFSSYEMNWVRQTPGKGLEWISHISSRSVIIYYADSVKGRFTISRDNAKNSLFLQMNSLRAEDTAVYFCAGITIFGIPEYWGQGTLVTVSS
VL: EIVLTQSPATLSLSPGERATLSCRASQSVSSYFAWYQQKPGQAPRLLIYDASSRATGIPTRFSGSGSGTDFTLTISSLEPEDFAVYYCQQRSSWPITFGQGTRLEIK

Assays:
PC3 cells = test: In vitro cell viability (cell kill) assay, CCK8; type: cell-based, human
From the text: (§1) PRLR-overexpressing cells, including HEK293, PC3, MCF7 and NCI-N87, were generated to assess the ability of anti-PRLR conjugated antibodies to reduce cell viability. For comparative purposes, PC3 and T47D cells with overexpressed ErbB2 were also generated, as well as an MCF7 cell line over-expressing both hPRLR and hErbB2. Briefly, Lipofectamine® 2000-mediated transfection methodology was utilized to generate HEK293 cells expressing human PRLR (HEK293/hPRLR) or human ErbB2 (HEK293/hErbB2). Lipofectamine LTX with Plus Reagent was used to generate PC3 cells expressing human PRLR (PC3/hPRLR) or human ErbB2 (PC3/hErbB2). Lentiviral-mediated transduction was utilized to generate MCF7 cells expressing human PRLR (MCF7/hPRLR), NCI-N87 cells expressing human PRLR (NCI-N87/hPRLR), T47D cells over-expressing human ErbB2 (T47D/hErbB2), and MCF7 cells expressing both human PRLR and human ErbB2 (MCF7/hPRLR/hErbB2). All lines were selected for at least two weeks in complete growth media plus appropriate selection reagents. Stably expressing populations were enriched for PRLR expression via FACS using the anti PRLR antibody Control I.
(§2) Next, the ability of anti-PRLR-DM1 antibody-drug conjugates (i.e., anti-PRLR antibodies conjugated to DM1 via a non-cleavable linker [SMCC]) to reduce cell viability was determined using in vitro cell based assays. Cells were seeded in PDL-coated 96 well plates at 1500 to 10000 cells per well in complete growth media and allowed to grow overnight. For cell viability curves, ADCs or free DM1 (as the methyl disulfide derivative DM1-SMe) were added to the cells at final concentrations ranging from 500 nM to 5 pM and incubated for 3 days. The 293, PC3 and T47D cells were incubated with CCK8 (Dojindo, Rockville, Md.) for the final 1-3 hours and the absorbance at 450 nm (OD450) was determined on a Flexstation3 (Molecular Devices, Sunnyvale, Calif.). MCF7 cells were treated with Hoechst 33342 nuclear stain while being fixed with 4% formaldehyde. Images were acquired on the ImageXpress micro XL (Molecular Devices, Sunnyvale, Calif.) and nuclear counts were determined via Columbus image analysis software (Perkin Elmer, Shelton, Conn.). Background OD450 values (PC3, 293, and T47D) or nuclear counts (MCF7) from digitonin (40 nM) treated cells was subtracted from all wells and viability was expressed as a percentage of the untreated controls. IC50 values were determined from a four-parameter logistic equation over a 10-point response curve (GraphPad Prism).

HEK293 (293) cells = test: In vitro cell viability (cell kill) assay, CCK8; type: cell-based, human; settings: 293; Table 19
From the text: as §1, §2

Molecule	% Kill (PC3 cells; Table 18)	IC50 (HEK293 (293) cells)	other results
B1	81%	–	–
B2	49%	–	IC50 (PC3 cells; Table 18): 130 nM
B3	–	110 nM	–
B4	–	–	% Kill (HEK293 (293) cells): 20%
B5	80%	–	IC50 (PC3 cells; Table 18): 80 nM
B6	29%	–	–
B7	–	–	% Kill (PC3 cells; Table 11, 3 days): 72%
B8	–	230 nM	–
B9	–	60 nM	–
B10	–	110 nM	–
